Blank lines part the entries; values can stand above or below the substance they belong to.
Biological target: Vps26A (UniProt O75436)
Experiment: BRET titration curves in live cells
Conditions: sites S72

other: BRET50 (reference: wild-type HEK293 cells): weaker; reference 0.0022±0.0009
Substance: Rab7A (from UniProt P51149) NEK7KO HEK293 cells

other: BRET50 (reference: NEK7KO HEK293 cells): stronger; reference 0.0096±0.0039
Substance: Rab7A (from UniProt P51149) NEK7KO HEK293 cells expressing HA–NEK7

other: BRET50 (reference: wild type RlucII–Rab7A): weaker; reference 0.0026±0.000512
Substance: Rab7A (from UniProt P51149) S72A

From PMC11828465
